# Measured values as given in the Human Domainome abundance scans (Beltran et al. 2025).
# ± gives the uncertainty stated by the source.
# B1: Far upstream element-binding protein 1, residues 184 to 257; numbered along this chain, Q96AE4 (parent)
# chain: GNAVQEIMIPASKAGLVIGKGGETIKQLQERAGVKMVMIQDGPQNTGADKPLRITGDPYKVQQAKEMVLELIRD
# Variants of: B1
# Assay: abundance fitness (aPCA) (normalised: wild type 0, dead -1); higher = more abundant; growth selection in yeast, the domain comes from the species named
# Settings: Homo sapiens
row,Variant,abundance fitness
1,GNAVQEGMIPASKAGLVIGKGGETIKQLQERAGVKMVMIQDGPQNTGADKPLRITGDPYKVQQAKEMVLELIRD,-0.885 ± 0.035
2,GNAVQETMIPASKAGLVIGKGGETIKQLQERAGVKMVMIQDGPQNTGADKPLRITGDPYKVQQAKEMVLELIRD,-0.564 ± 0.045
3,GNAVQEWMIPASKAGLVIGKGGETIKQLQERAGVKMVMIQDGPQNTGADKPLRITGDPYKVQQAKEMVLELIRD,-0.651 ± 0.04
4,GNAVQEFMIPASKAGLVIGKGGETIKQLQERAGVKMVMIQDGPQNTGADKPLRITGDPYKVQQAKEMVLELIRD,-0.229 ± 0.055
5,GNAVQEPMIPASKAGLVIGKGGETIKQLQERAGVKMVMIQDGPQNTGADKPLRITGDPYKVQQAKEMVLELIRD,-1.14 ± 0.079
6,GNAVQEDMIPASKAGLVIGKGGETIKQLQERAGVKMVMIQDGPQNTGADKPLRITGDPYKVQQAKEMVLELIRD,-1.02 ± 0.076
7,GNAVQECMIPASKAGLVIGKGGETIKQLQERAGVKMVMIQDGPQNTGADKPLRITGDPYKVQQAKEMVLELIRD,-0.394 ± 0.045
8,GNAVQELMIPASKAGLVIGKGGETIKQLQERAGVKMVMIQDGPQNTGADKPLRITGDPYKVQQAKEMVLELIRD,-0.026 ± 0.03
9,GNAVQEYMIPASKAGLVIGKGGETIKQLQERAGVKMVMIQDGPQNTGADKPLRITGDPYKVQQAKEMVLELIRD,-0.597 ± 0.058
10,GNAVQERMIPASKAGLVIGKGGETIKQLQERAGVKMVMIQDGPQNTGADKPLRITGDPYKVQQAKEMVLELIRD,-0.861 ± 0.035
11,GNAVQENMIPASKAGLVIGKGGETIKQLQERAGVKMVMIQDGPQNTGADKPLRITGDPYKVQQAKEMVLELIRD,-1.09 ± 0.1
12,GNAVQEEMIPASKAGLVIGKGGETIKQLQERAGVKMVMIQDGPQNTGADKPLRITGDPYKVQQAKEMVLELIRD,-0.646 ± 0.041
13,GNAVQEQMIPASKAGLVIGKGGETIKQLQERAGVKMVMIQDGPQNTGADKPLRITGDPYKVQQAKEMVLELIRD,-0.559 ± 0.047
14,GNAVQEAMIPASKAGLVIGKGGETIKQLQERAGVKMVMIQDGPQNTGADKPLRITGDPYKVQQAKEMVLELIRD,-0.674 ± 0.041
15,GNAVQEVMIPASKAGLVIGKGGETIKQLQERAGVKMVMIQDGPQNTGADKPLRITGDPYKVQQAKEMVLELIRD,-0.045 ± 0.03
16,GNAVQEIAIPASKAGLVIGKGGETIKQLQERAGVKMVMIQDGPQNTGADKPLRITGDPYKVQQAKEMVLELIRD,-0.124 ± 0.032
17,GNAVQEILIPASKAGLVIGKGGETIKQLQERAGVKMVMIQDGPQNTGADKPLRITGDPYKVQQAKEMVLELIRD,-0.075 ± 0.03
18,GNAVQEIEIPASKAGLVIGKGGETIKQLQERAGVKMVMIQDGPQNTGADKPLRITGDPYKVQQAKEMVLELIRD,-0.166 ± 0.039
19,GNAVQEIIIPASKAGLVIGKGGETIKQLQERAGVKMVMIQDGPQNTGADKPLRITGDPYKVQQAKEMVLELIRD,-0.011 ± 0.047
20,GNAVQEIRIPASKAGLVIGKGGETIKQLQERAGVKMVMIQDGPQNTGADKPLRITGDPYKVQQAKEMVLELIRD,-0.074 ± 0.026
21,GNAVQEINIPASKAGLVIGKGGETIKQLQERAGVKMVMIQDGPQNTGADKPLRITGDPYKVQQAKEMVLELIRD,-0.078 ± 0.049
22,GNAVQEIGIPASKAGLVIGKGGETIKQLQERAGVKMVMIQDGPQNTGADKPLRITGDPYKVQQAKEMVLELIRD,-0.151 ± 0.027
23,GNAVQEIQIPASKAGLVIGKGGETIKQLQERAGVKMVMIQDGPQNTGADKPLRITGDPYKVQQAKEMVLELIRD,-0.03 ± 0.04
24,GNAVQEIDIPASKAGLVIGKGGETIKQLQERAGVKMVMIQDGPQNTGADKPLRITGDPYKVQQAKEMVLELIRD,-0.23 ± 0.046
25,GNAVQEIVIPASKAGLVIGKGGETIKQLQERAGVKMVMIQDGPQNTGADKPLRITGDPYKVQQAKEMVLELIRD,-0.323 ± 0.032

row,Variant,abundance fitness
1,GNAVQEIPIPASKAGLVIGKGGETIKQLQERAGVKMVMIQDGPQNTGADKPLRITGDPYKVQQAKEMVLELIRD,-0.094 ± 0.036
2,GNAVQEIYIPASKAGLVIGKGGETIKQLQERAGVKMVMIQDGPQNTGADKPLRITGDPYKVQQAKEMVLELIRD,-0.133 ± 0.049
3,GNAVQEITIPASKAGLVIGKGGETIKQLQERAGVKMVMIQDGPQNTGADKPLRITGDPYKVQQAKEMVLELIRD,-0.106 ± 0.038
4,GNAVQEIHIPASKAGLVIGKGGETIKQLQERAGVKMVMIQDGPQNTGADKPLRITGDPYKVQQAKEMVLELIRD,-0.102 ± 0.052
5,GNAVQEICIPASKAGLVIGKGGETIKQLQERAGVKMVMIQDGPQNTGADKPLRITGDPYKVQQAKEMVLELIRD,-0.339 ± 0.047
6,GNAVQEISIPASKAGLVIGKGGETIKQLQERAGVKMVMIQDGPQNTGADKPLRITGDPYKVQQAKEMVLELIRD,-0.121 ± 0.031
7,GNAVQEIWIPASKAGLVIGKGGETIKQLQERAGVKMVMIQDGPQNTGADKPLRITGDPYKVQQAKEMVLELIRD,-0.164 ± 0.034
8,GNAVQEIMIFASKAGLVIGKGGETIKQLQERAGVKMVMIQDGPQNTGADKPLRITGDPYKVQQAKEMVLELIRD,-1.13 ± 0.13
9,GNAVQEIMIKASKAGLVIGKGGETIKQLQERAGVKMVMIQDGPQNTGADKPLRITGDPYKVQQAKEMVLELIRD,-0.287 ± 0.04
10,GNAVQEIMINASKAGLVIGKGGETIKQLQERAGVKMVMIQDGPQNTGADKPLRITGDPYKVQQAKEMVLELIRD,-0.299 ± 0.054
11,GNAVQEIMIIASKAGLVIGKGGETIKQLQERAGVKMVMIQDGPQNTGADKPLRITGDPYKVQQAKEMVLELIRD,-0.903 ± 0.084
12,GNAVQEIMIEASKAGLVIGKGGETIKQLQERAGVKMVMIQDGPQNTGADKPLRITGDPYKVQQAKEMVLELIRD,-0.364 ± 0.038
13,GNAVQEIMICASKAGLVIGKGGETIKQLQERAGVKMVMIQDGPQNTGADKPLRITGDPYKVQQAKEMVLELIRD,-0.598 ± 0.053
14,GNAVQEIMIQASKAGLVIGKGGETIKQLQERAGVKMVMIQDGPQNTGADKPLRITGDPYKVQQAKEMVLELIRD,-0.391 ± 0.044
15,GNAVQEIMIHASKAGLVIGKGGETIKQLQERAGVKMVMIQDGPQNTGADKPLRITGDPYKVQQAKEMVLELIRD,-0.398 ± 0.052
16,GNAVQEIMIRASKAGLVIGKGGETIKQLQERAGVKMVMIQDGPQNTGADKPLRITGDPYKVQQAKEMVLELIRD,-0.513 ± 0.03
17,GNAVQEIMITASKAGLVIGKGGETIKQLQERAGVKMVMIQDGPQNTGADKPLRITGDPYKVQQAKEMVLELIRD,-0.456 ± 0.042
18,GNAVQEIMILASKAGLVIGKGGETIKQLQERAGVKMVMIQDGPQNTGADKPLRITGDPYKVQQAKEMVLELIRD,-0.922 ± 0.049
19,GNAVQEIMISASKAGLVIGKGGETIKQLQERAGVKMVMIQDGPQNTGADKPLRITGDPYKVQQAKEMVLELIRD,-0.367 ± 0.036
20,GNAVQEIMIMASKAGLVIGKGGETIKQLQERAGVKMVMIQDGPQNTGADKPLRITGDPYKVQQAKEMVLELIRD,-0.678 ± 0.05
21,GNAVQEIMIVASKAGLVIGKGGETIKQLQERAGVKMVMIQDGPQNTGADKPLRITGDPYKVQQAKEMVLELIRD,-0.946 ± 0.047
22,GNAVQEIMIDASKAGLVIGKGGETIKQLQERAGVKMVMIQDGPQNTGADKPLRITGDPYKVQQAKEMVLELIRD,-0.355 ± 0.045
23,GNAVQEIMIAASKAGLVIGKGGETIKQLQERAGVKMVMIQDGPQNTGADKPLRITGDPYKVQQAKEMVLELIRD,-0.468 ± 0.035
24,GNAVQEIMIGASKAGLVIGKGGETIKQLQERAGVKMVMIQDGPQNTGADKPLRITGDPYKVQQAKEMVLELIRD,-0.557 ± 0.031
25,GNAVQEIMFPASKAGLVIGKGGETIKQLQERAGVKMVMIQDGPQNTGADKPLRITGDPYKVQQAKEMVLELIRD,-0.737 ± 0.066

row,Variant,abundance fitness
1,GNAVQEIMPPASKAGLVIGKGGETIKQLQERAGVKMVMIQDGPQNTGADKPLRITGDPYKVQQAKEMVLELIRD,-0.905 ± 0.055
2,GNAVQEIMMPASKAGLVIGKGGETIKQLQERAGVKMVMIQDGPQNTGADKPLRITGDPYKVQQAKEMVLELIRD,-0.312 ± 0.039
3,GNAVQEIMTPASKAGLVIGKGGETIKQLQERAGVKMVMIQDGPQNTGADKPLRITGDPYKVQQAKEMVLELIRD,-0.749 ± 0.045
4,GNAVQEIMQPASKAGLVIGKGGETIKQLQERAGVKMVMIQDGPQNTGADKPLRITGDPYKVQQAKEMVLELIRD,-0.768 ± 0.055
5,GNAVQEIMYPASKAGLVIGKGGETIKQLQERAGVKMVMIQDGPQNTGADKPLRITGDPYKVQQAKEMVLELIRD,-0.891 ± 0.077
6,GNAVQEIMLPASKAGLVIGKGGETIKQLQERAGVKMVMIQDGPQNTGADKPLRITGDPYKVQQAKEMVLELIRD,-0.087 ± 0.029
7,GNAVQEIMSPASKAGLVIGKGGETIKQLQERAGVKMVMIQDGPQNTGADKPLRITGDPYKVQQAKEMVLELIRD,-0.913 ± 0.045
8,GNAVQEIMVPASKAGLVIGKGGETIKQLQERAGVKMVMIQDGPQNTGADKPLRITGDPYKVQQAKEMVLELIRD,0.009 ± 0.029
9,GNAVQEIMWPASKAGLVIGKGGETIKQLQERAGVKMVMIQDGPQNTGADKPLRITGDPYKVQQAKEMVLELIRD,-0.964 ± 0.049
10,GNAVQEIMAPASKAGLVIGKGGETIKQLQERAGVKMVMIQDGPQNTGADKPLRITGDPYKVQQAKEMVLELIRD,-1 ± 0.056
11,GNAVQEIMHPASKAGLVIGKGGETIKQLQERAGVKMVMIQDGPQNTGADKPLRITGDPYKVQQAKEMVLELIRD,-0.905 ± 0.088
12,GNAVQEIMNPASKAGLVIGKGGETIKQLQERAGVKMVMIQDGPQNTGADKPLRITGDPYKVQQAKEMVLELIRD,-0.785 ± 0.065
13,GNAVQVIMIPASKAGLVIGKGGETIKQLQERAGVKMVMIQDGPQNTGADKPLRITGDPYKVQQAKEMVLELIRD,-0.028 ± 0.031
14,GNAVQTIMIPASKAGLVIGKGGETIKQLQERAGVKMVMIQDGPQNTGADKPLRITGDPYKVQQAKEMVLELIRD,-0.014 ± 0.035
15,GNAVQWIMIPASKAGLVIGKGGETIKQLQERAGVKMVMIQDGPQNTGADKPLRITGDPYKVQQAKEMVLELIRD,-0.082 ± 0.033
16,GNAVQNIMIPASKAGLVIGKGGETIKQLQERAGVKMVMIQDGPQNTGADKPLRITGDPYKVQQAKEMVLELIRD,-0.146 ± 0.047
17,GNAVQSIMIPASKAGLVIGKGGETIKQLQERAGVKMVMIQDGPQNTGADKPLRITGDPYKVQQAKEMVLELIRD,-0.185 ± 0.031
18,GNAVQYIMIPASKAGLVIGKGGETIKQLQERAGVKMVMIQDGPQNTGADKPLRITGDPYKVQQAKEMVLELIRD,-0.232 ± 0.048
19,GNAVQRIMIPASKAGLVIGKGGETIKQLQERAGVKMVMIQDGPQNTGADKPLRITGDPYKVQQAKEMVLELIRD,-0.145 ± 0.026
20,GNAVQQIMIPASKAGLVIGKGGETIKQLQERAGVKMVMIQDGPQNTGADKPLRITGDPYKVQQAKEMVLELIRD,0.024 ± 0.038
21,GNAVQPIMIPASKAGLVIGKGGETIKQLQERAGVKMVMIQDGPQNTGADKPLRITGDPYKVQQAKEMVLELIRD,-0.809 ± 0.053
22,GNAVQIIMIPASKAGLVIGKGGETIKQLQERAGVKMVMIQDGPQNTGADKPLRITGDPYKVQQAKEMVLELIRD,-0.101 ± 0.047
23,GNAVQLIMIPASKAGLVIGKGGETIKQLQERAGVKMVMIQDGPQNTGADKPLRITGDPYKVQQAKEMVLELIRD,-0.187 ± 0.03
24,GNAVQMIMIPASKAGLVIGKGGETIKQLQERAGVKMVMIQDGPQNTGADKPLRITGDPYKVQQAKEMVLELIRD,-0.078 ± 0.042
